# From patent US8993839B2, “Plant-based production of heterologous proteins” (The Regents of the University of California, priority 2010, dated 2015)
# Substrate: Cc1cc(=O)oc2cc(O[C@@H]3O[C@H](CO)[C@@H](O[C@@H]4O[C@H](CO)[C@@H](O)[C@H](O)[C@H]4O)[C@H](O)[C@H]3O)ccc12
# Assay: Michaelis-Menten kinetics of purified E1 (produced in P. pastoris, IMAC purified): cleavage of MUC to cellobiose and MU at various temperatures
# Format: biochemical, Acidothermus cellulolyticus
# Conditions: substrate MUC, from Lineweaver-Burk fit
# Procedure: Endoglucanase activity assay: Endoglucanase (E1) cleaves methylumbelliferyl-tagged cellobiose (MUC), releasing methylumbelliferone (MU). The MU fluorescence can be measured to determine E1 activity. The relative fluorescence readings of 0.024 to 3.0 μM MU solutions were used to create a linear standard curve. Samples containing E1 were diluted so the concentration of MU released fell within the standard curve. A 60 μl aliquot of diluted supernatant was added to 540 μl of acetate buffer (200 mM acetate, pH 5.5, 100 mM NaCl) and 200 μl of substrate (500 μM MUC). 200 μl of reaction was sampled at time zero and after 30 minutes and added to 800 μl of stop buffer (150 mM glycine, pH 10). The change in fluorescence over time was measured with a VersaFluor fluorometer (Bio-Rad). Fluorescence was converted to an activity, and the specific activity reported in the literature was used to approximate the concentration of E1 in Pichia supernatants. The Michaelis-Menten kinetic parameters of purified endoglucanase were determined. The E1 was produced in P. pastoris and purified by IMAC (immobilized metal affinity chromatography). E1 cleaves the substrate (MUC) into cellobiose and a fluorophore (MU), the concentration of which can be monitored over time. When run at 65° C. and […] substrate, this is the reaction used for the activity assay for E1 in plant extracts and yeast cultures. In this set of experiments, the substrate concentration was varied to determine the kinetic parameters at different temperatures. The rate for a reaction displaying Michaelis-Menten kinetics is shown in Equation 1. The rate depends on the catalysis rate (kcat), the total enzyme concentration (ET), the adsorption/desorption rates which are lumped into the Michaelis-Menten constant (KM), and the substrate concentration (S). At high substrate concentrations (S>>KM), the rate approaches a maximum, and […] is often written as Vmax. The parameters Vmax and KM can be determined experimentally by varying the substrate concentration (S) and measuring the reaction rate (V) at each concentration. Equation 1 can be rearranged as a linear equation (Equation 2). When the reciprocal of the reaction rate (V) is plotted against the reciprocal of the substrate concentration (S), a line fitting the data points can be used to determine KM/Vmax (the slope) and 1/Vmax (y-intercept). A Bradford assay was used to determine the E1 protein concentration in each sample, and this value of ET was used to calculate the kcat values in Table 1. Table 1 depicts a summary of Michaelis-Menten parameters for E1-catalyzed degradation of MUC to MU at various temperatures.
# [1] = other: 93 °C, uncertainty approaches 100%, not used further, 93.0 °C
protein,measurement,setting,value
"Acidothermus cellulolyticus β-1,4-endoglucanase E1 (P. pastoris-produced) (Acidothermus cellulolyticus 11B) (protein) AGGGYWHTSGREILDANNVPVRIAGINWFGFETCNYVVHGLWSRDYRSMLDQIKSLGYNTIRLPYSDDILKPGTMPNSINFYQMNQDLQGLTSLQVMDKIVAYAGQIGLRIILDRHRPDCSGQSALWYTSSVSEATWISDLQALAQRYKGNPTVVGFDLHNEPHDPACWGCGDPSIDWRLAAERAGNAVLSVNPNLLIFVEGVQSYNGDSYWWGGNLQGAGQYPVVLNVPNRLVYSAHDYATSVYPQTWFSDPTFPNNMPGIWNKNWGYLFNQNIAPVWLGEFGTTLQSTTDQTWLKTLVQYLRPTAQYGADSFQWTFWSWNPDSGDTGGILKDDWQTVDTVKDGYLAPIKSSIFDPVGASASPSSQPSPSVSPSPSPSPSASRTPTPTPTPTASPTPTLTPTATPTPTASPTPSPTAASGARCTASYQVNSDWGNGFTVTVAVTNSGSVATKTWTVSWTFGGNQTITNSWNAAVTQNGQSVTARNMSYNNVIQPGQNTTFGFQASYTGSNAAPTVACAASHHHHHH",Km,"other: 50 °C, 50.0 °C",59 ± 3 µM
same,Vmax,"other: 50 °C, 50.0 °C",0.083 µM/min
same,Km,"other: 65 °C, 65.0 °C",131 ± 4 µM
same,Vmax,"other: 65 °C, 65.0 °C",0.242 µM/min
same,Km,"other: 80 °C, 80.0 °C",372 ± 50 µM
same,Vmax,"other: 80 °C, 80.0 °C",0.523 µM/min
same,Km,[1],576 ± 570 µM
same,Vmax,[1],0.229 µM/min
